Where “and” joins values, the source holds several entries; their conditions need not be identical. Equal values may be shown once.
What was measured:
[1] = molecular target: T1, huntingtin exon 1-thioredoxin (TRX) fusion protein with 16 glutamines (Homo sapiens, UniProt P42858, strain); assay: SEC-MALS
[2] = molecular target: T2, huntingtin exon 1-thioredoxin (TRX) fusion protein with 39 glutamines (Homo sapiens, UniProt P42858, strain); assay: SEC-MALS
[3] = molecular target: T1, huntingtin exon 1-thioredoxin (TRX) …; assay: small angle X-ray scattering
[4] = molecular target: T2, huntingtin exon 1-thioredoxin (TRX) …; assay: SEC

T2 sequence (P42858 whole entry, looked up, change not shown, the tested form may be a part): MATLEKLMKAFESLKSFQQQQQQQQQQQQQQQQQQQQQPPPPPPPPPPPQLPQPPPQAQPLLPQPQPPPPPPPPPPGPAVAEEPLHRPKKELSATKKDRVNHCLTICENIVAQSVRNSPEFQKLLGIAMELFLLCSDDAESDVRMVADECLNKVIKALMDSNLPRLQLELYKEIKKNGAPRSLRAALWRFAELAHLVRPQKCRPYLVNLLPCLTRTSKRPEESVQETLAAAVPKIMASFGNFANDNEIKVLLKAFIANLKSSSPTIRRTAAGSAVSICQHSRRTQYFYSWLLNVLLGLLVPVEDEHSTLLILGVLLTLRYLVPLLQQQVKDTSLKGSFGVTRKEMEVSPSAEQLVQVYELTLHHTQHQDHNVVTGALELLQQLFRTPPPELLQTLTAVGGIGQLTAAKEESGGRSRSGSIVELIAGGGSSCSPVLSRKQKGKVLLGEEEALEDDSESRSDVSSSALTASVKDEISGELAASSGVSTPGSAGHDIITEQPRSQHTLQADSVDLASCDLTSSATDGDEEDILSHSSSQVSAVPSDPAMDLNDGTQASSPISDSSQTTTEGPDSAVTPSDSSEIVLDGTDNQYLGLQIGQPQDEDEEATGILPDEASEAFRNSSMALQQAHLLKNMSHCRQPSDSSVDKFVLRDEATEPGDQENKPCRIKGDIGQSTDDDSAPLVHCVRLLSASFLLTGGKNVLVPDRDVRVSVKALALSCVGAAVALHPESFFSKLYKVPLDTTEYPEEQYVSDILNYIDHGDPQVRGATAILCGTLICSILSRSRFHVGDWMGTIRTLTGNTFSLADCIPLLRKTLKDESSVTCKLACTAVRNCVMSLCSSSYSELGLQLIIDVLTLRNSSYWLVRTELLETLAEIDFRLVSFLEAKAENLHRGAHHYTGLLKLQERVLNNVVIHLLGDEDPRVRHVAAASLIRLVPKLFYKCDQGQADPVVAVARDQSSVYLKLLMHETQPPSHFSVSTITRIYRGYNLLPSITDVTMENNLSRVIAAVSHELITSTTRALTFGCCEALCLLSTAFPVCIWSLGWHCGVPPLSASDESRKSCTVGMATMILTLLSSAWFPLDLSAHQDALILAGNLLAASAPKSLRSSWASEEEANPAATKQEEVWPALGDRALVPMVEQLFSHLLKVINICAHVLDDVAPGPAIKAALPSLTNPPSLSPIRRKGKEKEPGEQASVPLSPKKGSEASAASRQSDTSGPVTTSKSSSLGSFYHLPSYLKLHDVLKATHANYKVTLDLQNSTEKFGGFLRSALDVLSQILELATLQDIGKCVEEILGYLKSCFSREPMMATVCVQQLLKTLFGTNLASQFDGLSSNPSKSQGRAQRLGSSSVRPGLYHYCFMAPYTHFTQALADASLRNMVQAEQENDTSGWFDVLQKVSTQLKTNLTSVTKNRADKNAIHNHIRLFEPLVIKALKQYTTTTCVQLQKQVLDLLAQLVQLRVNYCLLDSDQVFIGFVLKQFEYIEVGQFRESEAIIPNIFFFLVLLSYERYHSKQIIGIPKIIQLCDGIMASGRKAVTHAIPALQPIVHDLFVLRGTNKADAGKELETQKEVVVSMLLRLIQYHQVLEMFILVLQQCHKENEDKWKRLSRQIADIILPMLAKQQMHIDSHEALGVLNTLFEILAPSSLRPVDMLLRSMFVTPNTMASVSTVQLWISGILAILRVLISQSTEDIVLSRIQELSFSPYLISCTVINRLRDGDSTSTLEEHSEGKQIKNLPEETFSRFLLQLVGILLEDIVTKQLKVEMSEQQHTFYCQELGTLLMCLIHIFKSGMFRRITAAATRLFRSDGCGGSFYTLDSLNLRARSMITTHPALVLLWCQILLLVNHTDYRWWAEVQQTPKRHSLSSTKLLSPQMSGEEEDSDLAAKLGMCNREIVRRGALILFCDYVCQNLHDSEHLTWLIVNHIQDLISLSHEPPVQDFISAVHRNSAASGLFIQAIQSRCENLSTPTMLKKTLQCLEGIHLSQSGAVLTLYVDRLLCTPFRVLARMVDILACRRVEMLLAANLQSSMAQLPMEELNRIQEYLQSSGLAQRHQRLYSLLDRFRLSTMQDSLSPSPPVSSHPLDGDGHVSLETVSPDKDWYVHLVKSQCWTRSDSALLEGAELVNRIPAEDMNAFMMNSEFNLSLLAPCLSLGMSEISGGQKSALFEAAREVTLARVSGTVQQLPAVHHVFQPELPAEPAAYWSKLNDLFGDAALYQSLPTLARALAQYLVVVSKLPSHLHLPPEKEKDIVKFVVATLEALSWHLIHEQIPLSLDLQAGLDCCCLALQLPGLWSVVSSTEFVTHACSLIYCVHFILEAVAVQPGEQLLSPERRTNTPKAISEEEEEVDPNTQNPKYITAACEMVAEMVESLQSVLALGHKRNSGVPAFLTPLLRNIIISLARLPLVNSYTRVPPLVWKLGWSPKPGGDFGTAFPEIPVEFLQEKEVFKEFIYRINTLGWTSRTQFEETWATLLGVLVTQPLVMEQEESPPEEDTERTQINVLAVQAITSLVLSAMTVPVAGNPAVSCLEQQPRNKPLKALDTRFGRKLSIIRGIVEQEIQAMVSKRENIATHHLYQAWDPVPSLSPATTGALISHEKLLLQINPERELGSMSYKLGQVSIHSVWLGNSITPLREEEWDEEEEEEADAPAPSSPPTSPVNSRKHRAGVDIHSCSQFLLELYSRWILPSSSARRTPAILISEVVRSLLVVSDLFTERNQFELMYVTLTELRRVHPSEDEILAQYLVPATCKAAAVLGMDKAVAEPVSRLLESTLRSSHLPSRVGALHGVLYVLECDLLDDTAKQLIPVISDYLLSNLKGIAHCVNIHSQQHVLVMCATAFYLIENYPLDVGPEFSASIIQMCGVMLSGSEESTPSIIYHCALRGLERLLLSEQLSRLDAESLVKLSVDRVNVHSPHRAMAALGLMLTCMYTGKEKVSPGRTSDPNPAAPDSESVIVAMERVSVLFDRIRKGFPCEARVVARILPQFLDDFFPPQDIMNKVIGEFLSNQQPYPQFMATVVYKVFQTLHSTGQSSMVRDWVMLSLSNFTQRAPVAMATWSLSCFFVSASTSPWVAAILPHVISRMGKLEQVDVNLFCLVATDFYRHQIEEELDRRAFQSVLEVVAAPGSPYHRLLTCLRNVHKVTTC
T1 sequence (P42858 whole entry, looked up, change not shown, the tested form may be a part): as above

stoichiometry N [1]: 1 3B5H10 Fab:HD-16Q
stoichiometry N [2]: > 1 3B5H10 Fab:HD-39Q and < 2 3B5H10 Fab:HD-39Q
stoichiometry N [3]: 1 Fab:HD-16Q
N at 5 μM 3B5H10 Fab in the equilibration buffer (ratio with flat baseline) [4]: ~2.6 Fab:HD-39Q
stoichiometry N [4]: 3 Fab:HD-39Q
B1: 3B5H10 Fab (Fab, V domains shown)
VH: QIQLVQSGPELKKPGETVKISCKASGYTFTTYGMSWVKQAPGKGFEWMGWINTYSGVPTYVDDFKGRFAFSLETSASTAYLQINNLKNEDTAVYFCARGGDNYLWFAYWGQGTLVTVSA
VL: QLVLTQSSSASFSLGASAKLTCTLNSQHSTYTIEWYQQQPLKPPKYVMELKKDGSHSTGDGIPDRFSGSSSGADRYLSISNIQPEDEAIYICGVGDTIKEQFVYVFGGGTKVTVL

Reference: paper PMC4520773 (Journal of molecular biology, 2015)
